Reference: patent US6379664

B1: recombinant human lens thioltransferase (protein)
chain: AQEFVNCKIQPGKVVVFIKPTCPFCVKTQELLSQLPFKEGLLEFVDITATSDTNEIQDYLQQLTGARTVPRVFIGKECIGGCTDLESMHKRGELLTRLQQIGALK
B2: recombinant human lens thioltransferase, P12309 2-106 (enzyme)
chain: AQEFVNCKIQPGKVVVFIKPTCPFCVKTQELLSQLPFKEGLLEFVDITATSDTNEIQDYLQQLTGARTVPRVFIGKECIGGCTDLESMHKRGELLTRLQQIGALK

Key:
[1] = molecular target: alpha crystalline-cystine mixed disulfide
[2] = molecular target: BSA-GSH mixed disulfide, P02769
BSA-GSH mixed disulfide, P02769, sequence (P02769 25-607): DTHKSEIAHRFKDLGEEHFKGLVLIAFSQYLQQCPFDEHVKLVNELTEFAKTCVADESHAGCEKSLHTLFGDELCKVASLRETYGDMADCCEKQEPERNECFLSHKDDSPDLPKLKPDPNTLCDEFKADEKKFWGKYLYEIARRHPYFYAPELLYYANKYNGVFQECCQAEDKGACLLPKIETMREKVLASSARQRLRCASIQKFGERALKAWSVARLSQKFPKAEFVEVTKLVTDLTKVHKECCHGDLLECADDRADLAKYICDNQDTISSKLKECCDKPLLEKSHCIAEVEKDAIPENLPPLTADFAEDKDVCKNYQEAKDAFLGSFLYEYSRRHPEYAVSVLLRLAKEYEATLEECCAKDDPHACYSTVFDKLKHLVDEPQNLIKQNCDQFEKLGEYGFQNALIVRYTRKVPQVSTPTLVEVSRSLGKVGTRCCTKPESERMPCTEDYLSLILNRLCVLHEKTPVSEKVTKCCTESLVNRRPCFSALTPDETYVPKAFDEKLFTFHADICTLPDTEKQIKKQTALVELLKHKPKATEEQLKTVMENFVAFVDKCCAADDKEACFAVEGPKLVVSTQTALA

[3] = molecular target: alpha crystallin-GSH mixed disulfide
[4] = molecular target: gamma crystallin-GSH mixed disulfide
[5] = molecular target: G3PD from H2O2 (0.5 mM) pretreated rabbit lens epithelial cells
[6] = molecular target: protein-cysteine mixed disulfides (PSSC); test: cell-based or functional assay

Row | Binder | dethiolation of 14C-PSSC [1] | dethiolation of 3H-PSSG (nmol dethiolated per µg thioltransferase protein; TCA-soluble radioactivity) [2] [nmol/µg thioltransferase] | dethiolation of 3H-PSSG (nmol dethiolated per µg thioltransferase protein; TCA-soluble radioactivity) [3] [nmol/µg thioltransferase] | dethiolation of 3H-PSSG (nmol dethiolated per µg thioltransferase protein; TCA-soluble radioactivity) [4] [nmol/µg thioltransferase] | substrate preference in dethiolation [4] | regeneration of G3PD activity (percent of activity regenerated by 30 mM DTT) [5] | dethiolation of PSSC relative to PSSG [6] [%]
1 | B1 | alpha crystalline-cystine mixed disulfide could not be dethiolated by lens thioltransferase | 0.3 | 0.6 | 1.15 | Gamma crystallin-thiol mixed disulfide appears to be the favorable substrate for lens thioltransferase | regeneration of G3PD from H2O2 (0.5 mM) pretreated rabbit cells by recombinant human lens thioltransferase | –
2 | B2 | – | – | – | – | – | – | 50 to 60
